Biological target: the molecule itself
Test: SEC-MALS

B1: Flag-UBE2O-TwinStrep (recombinant Homo sapiens UBE2O, purified) (enzyme, human, UniProt Q9C0C9 1-1292, looked up)
chain: MADPAAPTPAAPAPAQAPAPAPEAVPAPAAAPVPAPAPASDSASGPSSDSGPEAGSQRLLFSHDLVSGRYRGSVHFGLVRLIHGEDSDSEGEEEGRGSSGCSEAGGAGHEEGRASPLRRGYVRVQWYPEGVKQHVKETKLKLEDRSVVPRDVVRHMRSTDSQCGTVIDVNIDCAVKLIGTNCIIYPVNSKDLQHIWPFMYGDYIAYDCWLGKVYDLKNQIILKLSNGARCSMNTEDGAKLYDVCPHVSDSGLFFDDSYGFYPGQVLIGPAKIFSSVQWLSGVKPVLSTKSKFRVVVEEVQVVELKVTWITKSFCPGGTDSVSPPPSVITQENLGRVKRLGCFDHAQRQLGERCLYVFPAKVEPAKIAWECPEKNCAQGEGSMAKKVKRLLKKQVVRIMSCSPDTQCSRDHSMEDPDKKGESKTKSEAESASPEETPDGSASPVEMQDEGAEEPHEAGEQLPPFLLKEGRDDRLHSAEQDADDEAADDTDDTSSVTSSASSTTSSQSGSGTSRKKSIPLSIKNLKRKHKRKKNKITRDFKPGDRVAVEVVTTMTSADVMWQDGSVECNIRSNDLFPVHHLDNNEFCPGDFVVDKRVQSCPDPAVYGVVQSGDHIGRTCMVKWFKLRPSGDDVELIGEEEDVSVYDIADHPDFRFRTTDIVIRIGNTEDGAPHKEDEPSVGQVARVDVSSKVEVVWADNSKTIILPQHLYNIESEIEESDYDSVEGSTSGASSDEWEDDSDSWETDNGLVEDEHPKIEEPPIPPLEQPVAPEDKGVVISEEAATAAVQGAVAMAAPMAGLMEKAGKDGPPKSFRELKEAIKILESLKNMTVEQLLTGSPTSPTVEPEKPTREKKFLDDIKKLQENLKKTLDNVAIVEEEKMEAVPDVERKEDKPEGQSPVKAEWPSETPVLCQQCGGKPGVTFTSAKGEVFSVLEFAPSNHSFKKIEFQPPEAKKFFSTVRKEMALLATSLPEGIMVKTFEDRMDLFSALIKGPTRTPYEDGLYLFDIQLPNIYPAVPPHFCYLSQCSGRLNPNLYDNGKVCVSLLGTWIGKGTERWTSKSSLLQVLISIQGLILVNEPYYNEAGFDSDRGLQEGYENSRCYNEMALIRVVQSMTQLVRRPPEVFEQEIRQHFSTGGWRLVNRIESWLETHALLEKAQALPNGVPKASSSPEPPAVAELSDSGQQEPEDGGPAPGEASQGSDSEGGAQGLASASRDHTDQTSETAPDASVPPSVKPKKRRKSYRSFLPEKSGYPDIGFPLFPLSKGFIKSIRGVLTQFRAALLEAGMPECTEDK
Question: For B1, which “stoichiometry N” value is on record?
Answer: 2

Source: publication doi:10.1101/2025.06.27.661974 (bioRxiv, 2025)
